Reference: patent publication US20230190867A1 (BIOINCEPT, published 2023)
No end group written: not given here.

Legend:
Experiment in all cases: PIF-agarose affinity extraction, liver lysate column of Table 4
14-3-3 protein eta = target: T1, 14-3-3 protein eta (human, UniProt Q04917 2-246)
T1 sequence (looked up): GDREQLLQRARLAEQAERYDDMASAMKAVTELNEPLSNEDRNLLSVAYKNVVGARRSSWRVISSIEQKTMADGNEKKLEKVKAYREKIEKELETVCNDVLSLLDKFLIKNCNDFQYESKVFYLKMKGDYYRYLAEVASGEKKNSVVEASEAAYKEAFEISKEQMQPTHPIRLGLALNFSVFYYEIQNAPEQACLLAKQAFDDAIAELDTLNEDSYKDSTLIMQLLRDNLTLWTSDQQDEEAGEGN

14-3-3 protein gamma = target: T2, 14-3-3 protein gamma (human, UniProt P61981 1-247)
T2 sequence (looked up): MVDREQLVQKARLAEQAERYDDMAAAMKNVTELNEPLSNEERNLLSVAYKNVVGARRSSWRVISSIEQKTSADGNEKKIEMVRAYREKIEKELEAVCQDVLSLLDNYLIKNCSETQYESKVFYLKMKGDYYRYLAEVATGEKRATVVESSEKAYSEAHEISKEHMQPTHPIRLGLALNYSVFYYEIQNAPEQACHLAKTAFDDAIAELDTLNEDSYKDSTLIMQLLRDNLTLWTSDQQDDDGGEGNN

14-3-3 protein theta = target: T3, 14-3-3 protein theta (human, UniProt P27348 1-245)
T3 sequence (looked up): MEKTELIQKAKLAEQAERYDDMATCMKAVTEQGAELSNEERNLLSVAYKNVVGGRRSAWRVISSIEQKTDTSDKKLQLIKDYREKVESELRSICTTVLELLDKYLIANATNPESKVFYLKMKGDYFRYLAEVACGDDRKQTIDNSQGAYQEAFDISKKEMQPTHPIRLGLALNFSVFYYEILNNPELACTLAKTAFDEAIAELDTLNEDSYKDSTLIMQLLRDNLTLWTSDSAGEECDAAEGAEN

[1] = target: T4, 14-3-3 protein zeta/delta (human, UniProt P63104 1-245)
T4 sequence (looked up): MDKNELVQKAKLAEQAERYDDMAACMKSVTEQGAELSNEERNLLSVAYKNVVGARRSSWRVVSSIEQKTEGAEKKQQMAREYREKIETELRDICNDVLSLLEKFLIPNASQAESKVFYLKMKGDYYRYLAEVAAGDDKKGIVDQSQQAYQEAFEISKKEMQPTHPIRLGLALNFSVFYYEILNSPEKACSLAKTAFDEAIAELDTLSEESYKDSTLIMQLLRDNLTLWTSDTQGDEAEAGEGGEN

[2] = target: 40S ribosomal protein S3a (human, UniProt P61247 2-264)
[3] = target: Acidic leucine-rich nuclear phosphoprotein 32 family Member A (human, UniProt P39687 1-249)
[4] = target: Actin, alpha skeletal muscle (human, UniProt P68133 3-377)
Annexin A2 = Annexin A2 (human, UniProt P07355 2-339)
[5] = target: ATP synthase subunit beta, mitochondrial (human, UniProt P06576 48-529)
Isoform 2 of Protein SET = Isoform 2 of Protein SET (human, UniProt Q01105-2 2-277)
[6] = target: Isoform 2 of Tropomyosin alpha-4 chain (human, UniProt P67936-2 1-284)
[7] = target: Isoform 2 of Tropomyosin beta chain (human, UniProt P07951-2 1-284)
Isoform C of Lamin-A/C = target: T5, Isoform C of Lamin-A/C (human, UniProt P02545-2 1-572)
T5 sequence (looked up): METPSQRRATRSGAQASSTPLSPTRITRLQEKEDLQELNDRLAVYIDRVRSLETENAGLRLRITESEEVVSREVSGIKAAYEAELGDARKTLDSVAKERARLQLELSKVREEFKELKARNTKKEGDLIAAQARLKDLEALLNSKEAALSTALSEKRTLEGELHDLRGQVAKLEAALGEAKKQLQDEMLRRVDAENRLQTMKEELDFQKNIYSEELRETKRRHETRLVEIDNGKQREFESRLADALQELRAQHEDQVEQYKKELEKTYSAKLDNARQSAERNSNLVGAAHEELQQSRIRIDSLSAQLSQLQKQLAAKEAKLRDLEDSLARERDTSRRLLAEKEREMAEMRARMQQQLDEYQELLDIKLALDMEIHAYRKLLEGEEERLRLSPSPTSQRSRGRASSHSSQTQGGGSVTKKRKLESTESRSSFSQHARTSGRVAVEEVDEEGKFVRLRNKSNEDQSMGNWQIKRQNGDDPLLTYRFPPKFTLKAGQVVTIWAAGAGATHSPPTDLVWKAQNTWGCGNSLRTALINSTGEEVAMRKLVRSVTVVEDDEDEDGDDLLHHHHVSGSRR

[8] = target: T6, Serine/arginine-rich-splicing factor 2 (human, UniProt Q01130 2-221)
T6 sequence (looked up): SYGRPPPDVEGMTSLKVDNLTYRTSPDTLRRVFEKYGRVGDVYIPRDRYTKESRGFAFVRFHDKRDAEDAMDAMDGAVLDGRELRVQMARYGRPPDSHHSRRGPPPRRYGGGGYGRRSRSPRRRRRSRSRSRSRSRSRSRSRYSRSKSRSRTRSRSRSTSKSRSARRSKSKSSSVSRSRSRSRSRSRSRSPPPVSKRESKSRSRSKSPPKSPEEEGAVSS

Thioredoxin = target: T7, Thioredoxin (human, UniProt P10599 2-105)
T7 sequence (looked up): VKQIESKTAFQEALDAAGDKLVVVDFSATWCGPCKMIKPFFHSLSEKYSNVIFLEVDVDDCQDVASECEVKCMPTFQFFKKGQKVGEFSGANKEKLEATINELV

Measured: binding result

B1: sPIF-1(15) (peptide)
peptide: MVRIKPGSANKPSDD
modifications: also: coupled to agarose support
notes: also called synthetic preimplantation factor
binds: all assays above
